Consider one molecule from patent US20120077731A1 (Ablynx, published 2012).

For test [1], the target named is T1, Human membrane IL-6R on cells (human, UniProt P08887 20-468).
T1 sequence (looked up): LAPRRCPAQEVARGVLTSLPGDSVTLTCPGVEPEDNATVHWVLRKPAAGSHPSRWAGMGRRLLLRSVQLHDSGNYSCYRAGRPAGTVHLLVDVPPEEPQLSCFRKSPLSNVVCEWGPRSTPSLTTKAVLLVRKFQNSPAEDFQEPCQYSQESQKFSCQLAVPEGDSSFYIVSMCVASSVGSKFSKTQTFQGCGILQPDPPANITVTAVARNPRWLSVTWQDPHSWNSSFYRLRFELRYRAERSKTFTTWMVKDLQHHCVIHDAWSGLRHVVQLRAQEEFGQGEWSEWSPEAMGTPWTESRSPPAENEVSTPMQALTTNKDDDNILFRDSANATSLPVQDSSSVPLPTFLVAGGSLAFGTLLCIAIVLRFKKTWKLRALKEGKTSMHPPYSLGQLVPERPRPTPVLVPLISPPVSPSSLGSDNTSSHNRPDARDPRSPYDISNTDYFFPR
Nature of the test: cell-based or functional assay.

Test [2] addresses T1, Human membrane IL-6R on cells. In words: flow cytometry, human PBL, granulocytes donor 1. (In general: In flow cytometry, cells or beads pass a laser one at a time.)
Experimental: The Nanobodies were incubated in EDTA-treated blood from 2 donors and bound Nanobody was detected by flow cytometry. Lymphocytes, monocytes and granulocytes were gated based on FSC/SSC properties (FIG. 40) and bound Nanobodies were detected in the PE channel.
The target is the same in test [3]. Nature of the test: flow cytometry, CHO cells expressing human IL-6R, 4PL fit.
Test [4] has as its target T2, Human soluble IL-6R (human, UniProt P08887 20-358).
T2 construct: Soluble recombinant form; biotinylated in some assays; also called hIL-6R; human IL-6R
T2 sequence (looked up): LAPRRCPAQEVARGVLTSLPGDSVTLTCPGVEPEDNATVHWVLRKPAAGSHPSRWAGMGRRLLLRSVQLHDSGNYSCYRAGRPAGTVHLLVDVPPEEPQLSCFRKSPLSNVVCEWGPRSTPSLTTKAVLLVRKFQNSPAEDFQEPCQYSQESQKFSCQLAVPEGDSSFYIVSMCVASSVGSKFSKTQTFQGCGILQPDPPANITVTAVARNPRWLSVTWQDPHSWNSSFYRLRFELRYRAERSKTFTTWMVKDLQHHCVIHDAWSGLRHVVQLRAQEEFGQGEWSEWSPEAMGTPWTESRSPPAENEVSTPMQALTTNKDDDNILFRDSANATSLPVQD
In words: ELISA, IL6R20A11 on biotinylated human sIL-6R on neutravidin plate. (In general: In an ELISA, binding on a coated surface is turned into a signal by an enzyme label.)

The target of test [5] is T3, LIF-R (UniProt P42702 45-833, limits assumed).
T3 sequence (looked up): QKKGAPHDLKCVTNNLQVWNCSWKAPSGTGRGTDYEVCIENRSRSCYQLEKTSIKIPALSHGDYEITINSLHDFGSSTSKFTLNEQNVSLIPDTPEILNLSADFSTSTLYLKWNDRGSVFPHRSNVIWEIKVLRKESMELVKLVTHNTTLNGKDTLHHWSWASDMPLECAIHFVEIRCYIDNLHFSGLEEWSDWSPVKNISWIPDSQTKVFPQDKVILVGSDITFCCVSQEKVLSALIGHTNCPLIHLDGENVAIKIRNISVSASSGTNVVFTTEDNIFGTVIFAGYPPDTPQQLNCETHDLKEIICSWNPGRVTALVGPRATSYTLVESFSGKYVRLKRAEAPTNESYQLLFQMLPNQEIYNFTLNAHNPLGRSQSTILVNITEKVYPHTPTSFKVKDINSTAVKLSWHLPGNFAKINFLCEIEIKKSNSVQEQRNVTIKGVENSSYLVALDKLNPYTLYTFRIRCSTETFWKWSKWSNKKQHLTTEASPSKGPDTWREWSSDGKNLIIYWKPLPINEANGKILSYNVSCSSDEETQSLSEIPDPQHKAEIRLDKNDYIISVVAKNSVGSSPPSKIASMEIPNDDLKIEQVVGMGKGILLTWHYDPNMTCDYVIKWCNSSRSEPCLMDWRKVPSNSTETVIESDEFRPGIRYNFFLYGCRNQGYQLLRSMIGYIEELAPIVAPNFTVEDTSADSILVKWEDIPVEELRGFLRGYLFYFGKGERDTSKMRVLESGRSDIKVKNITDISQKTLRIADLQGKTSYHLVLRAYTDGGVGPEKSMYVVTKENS
In words: competitive binding ELISA: IL6R20A11 (0.05 nM) pre-incubated with a series of the receptor; free IL6R20A11 captured on sIL-6R and detected via anti-His.

Test [6] has as its target T4, OSM-R (UniProt Q99650 28-739, limits assumed).
T4 sequence (looked up): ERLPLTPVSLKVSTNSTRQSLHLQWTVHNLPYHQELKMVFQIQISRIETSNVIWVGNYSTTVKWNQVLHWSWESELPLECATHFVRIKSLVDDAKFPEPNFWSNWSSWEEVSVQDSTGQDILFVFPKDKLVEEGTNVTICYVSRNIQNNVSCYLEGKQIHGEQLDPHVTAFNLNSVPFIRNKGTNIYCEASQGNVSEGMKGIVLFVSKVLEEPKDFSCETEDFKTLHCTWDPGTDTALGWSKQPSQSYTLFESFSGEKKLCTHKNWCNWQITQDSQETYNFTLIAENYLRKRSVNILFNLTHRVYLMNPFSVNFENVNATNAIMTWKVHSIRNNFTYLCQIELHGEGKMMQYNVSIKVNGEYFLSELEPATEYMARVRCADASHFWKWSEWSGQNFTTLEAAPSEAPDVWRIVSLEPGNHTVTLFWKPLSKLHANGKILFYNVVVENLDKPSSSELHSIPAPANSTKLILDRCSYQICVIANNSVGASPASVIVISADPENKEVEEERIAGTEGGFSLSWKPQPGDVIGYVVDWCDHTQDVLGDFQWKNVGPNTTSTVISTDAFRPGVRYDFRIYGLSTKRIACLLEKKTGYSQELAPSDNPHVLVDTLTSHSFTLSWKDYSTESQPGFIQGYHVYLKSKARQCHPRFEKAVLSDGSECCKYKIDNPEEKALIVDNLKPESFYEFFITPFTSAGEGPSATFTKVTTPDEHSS
The test is described as above.

A word on the EC50: it is the concentration that produces a half-maximal response. High values mean lower potency in that assay, low ones higher potency in that assay.

B1: PMP20A11 (VHH)
VHH: EVQLVESGGGLVQPGGSLRLSCAASGSVFKINVMAWYRQAPGKGRELVAGIISGGSTSYADSVKGRFTISRDNAKNTLYLQMNSLRPEDTAVYYCAFITTESDYDLGRRYWGQGTLVTVSS
notes: also called IL6R20A11; IL6R300; not shown: c-myc and (His)6 tags
As to B1, the “IC50, TF1 assay” value in test [1] turned out to be 0.4 nM. Further, the EC50 in test [2] amounted to 2.42 nM; in test [3] it was 1.4 nM; in test [4], 0.35 nM. For the same molecule, the binding result in test [5] and in test [6] was “no binding (tested: 5 nM (log conc 0.7))” each time.
